This assay has as its target Flag-tagged wild-type GAPDH (human) (UniProt P04406). The assay is described as follows: native gel or EMSA; lysates of stable PANC-1 lines (GFP/wild-type GAPDH, GFP-PRMT3/wild-type GAPDH, GFP-PRMT3/R248K-GAPDH) on 10% native gel; tetrameric form.

This is an account of results in article PMC6642535.

Chain of Flag-tagged wild-type GAPDH, P04406 1-335 (enzyme; other documents disagree on this pair) (P04406 whole entry): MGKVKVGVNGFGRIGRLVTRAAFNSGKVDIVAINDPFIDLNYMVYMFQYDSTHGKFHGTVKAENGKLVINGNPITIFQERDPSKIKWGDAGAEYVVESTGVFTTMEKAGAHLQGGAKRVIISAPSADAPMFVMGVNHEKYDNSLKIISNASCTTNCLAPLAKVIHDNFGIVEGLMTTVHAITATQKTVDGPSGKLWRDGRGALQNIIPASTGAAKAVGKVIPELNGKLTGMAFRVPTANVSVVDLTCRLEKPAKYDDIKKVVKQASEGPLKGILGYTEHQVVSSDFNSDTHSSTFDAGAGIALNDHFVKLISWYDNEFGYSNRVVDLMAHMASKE

What is called stoichiometry N is the number of molecules, sites or subunits per partner or assembly. The substance “Flag-tagged wild-type GAPDH, P04406 1-335 (enzyme; other documents disagree on this pair)” returned a stoichiometry N of 4.
